The nature of data set [1]: Western blot, total hG6Pase-α in HeLa lysates, 24 h. The note with it: glycan lost; control: wild type. (Immunoblotting shows a protein as a band on a membrane.)
Data set [2] can be described thus: Pi release from G6P in HeLa lysates, 24 h. The note with it: glycan lost; control: wild type.

One protein from article PMC10247848 can be followed below.

B1: human glucose-6-phosphatase-α (hG6Pase-α): N96A (protein)
parent chain: MEEGMNVLHDFGIQSTHYLQVNYQDSQDWFILVSVIADLRNAFYVLFPIWFHLQEAVGIKLLWVAVIGDWLNLVFKWILFGQRPYWWVLDTDYYSNTSVPLIKQFPVTCETGPGSPSGHAMGTAGVYYVMVTSTLSIFQGKIKPTYRFRCLNVILWLGFWAVQLNVCLSRIYLAAHFPHQVVAGVLSGIAVAETFSHIHSIYNASLKKYFLITFFLFSFAIGFYLLLKGLGVDLLWTLEKAQRWCEQPEWVHIDTTPFASLLKNLGTLFGLGLALNSSMYRESCKGKLSKWLPFRLSSIVASLVLLHVFDSLKPPSQVELVFYVLSFCKSAVVPLASVSVIPYCLAQVLGQPHKKSL
With B1, in data set [1], the “expression_or_secretion, percent_of_wt” value is reported as “no change, 109.0 ± 16.9 vs 100.0 ± 8.2”. Also, in data set [2], the “enzymatic_activity, percent_of_wt” value is “abolishes, 0.9 ± 0.8 vs 100 ± 21.6”.
